Blank lines part the entries; values can stand above or below the molecule they belong to. No end group written: not given here.
How the values were obtained:
[1] = test system: Cerebellar granule neurons; experiment: Survival of cerebellar granule neurons induced to undergo apoptosis by low potassium; assay type: cell-based, rat; conditions: 5 mM KCl, survival estimated 48 hours later
Description: (§1) Cerebellar granule neurons (CGNs) were prepared from 7-day-old Wistar rats (from Charles River Laboratories, Sulzfeld, Germany; or from Hygind Møllegård Erik Møllegaard Hansen, Ejby, Denmark) as previously described. Briefly, the cerebella were cleared of meninges and blood vessels, roughly homogenized by chopping and trypsinized. The cells were washed in the presence of DNAse I and soybean trypsin inhibitor (Sigma-Aldrich, St Louis, MO, USA), and cellular debris was pelleted by centrifugation. The fibroblastoid mouse cell line L929 (LVN; European Collection of Cell Cultures, Porton Down, UK) was routinely grown at 37°C with 5% CO2 in DMEM supplemented with 10% (vol/vol) FCS, 2 mM GlutaMAX, 100 U/ml penicillin and 100 μg/ml streptomycin.
(§2) Cerebellar granule neurons were plated at a density of 1 × 10^5 cells/cm^2 on poly-L-lysine-coated, eight-well Permanox Lab-Tek chamber slides (Nunc) in Neurobasal-A medium supplemented with 2% (vol/vol) B27 (Gibco BRL), 0.5% (vol/vol) GlutaMAX, 100 U/ml penicillin and 100 μg/ml streptomycin. The CGN survival assay was performed as previously described. The neurite outgrowth assay was also performed as previously described.
Figure 5 Effect of Ilantide and interleukin 1 receptor antagonist on survival of cerebellar granule neurons induced to undergo apoptosis. The neurons were allowed to differentiate for 7 days in a high-potassium (40 mM) medium before apoptosis was induced by changing to a low-potassium medium (5 mM). Survival was estimated 48 hours later. (A) The effect of insulin-like growth factor 1 (IGF-1), interleukin 1 receptor antagonist (IL-1Ra) and IL-1β on cerebellar granule neuron (CGN) apoptosis induced by 5 mM KCl. (B) The effect of Ilantide-m on CGN apoptosis induced by 5 mM KCl. […] The results from at least four independent experiments are expressed as mean ± SEM with untreated cultures induced to undergo apoptosis by 5 mM KCl set at 100%. *P < 0.05 and **P < 0.01 compared with untreated cultures induced to undergo apoptosis (one-way analysis of variance followed by Newman-Keuls post hoc test).

[2] = test system: double-Ig module (Ig1-Ig2) of NCAM; experiment: Surface plasmon resonance, negative control protein; assay type: binding; conditions: SPR
Description: (§3) The binding analysis was performed using a Biacore 2000 instrument (GE Healthcare Life Sciences) that contained 150 mM NaCl as running buffer at 25°C with 10 mM sodium phosphate (pH 7.4). The flow rate was 5 μl/min during immobilization. Ilantide peptide, IL-1β or IL-1Ra was immobilized on a CM4 sensor chip according to the manufacturer’s instructions, after which the recombinant ectodomain of IL-1RI (R&D Systems) was injected. The neural cell adhesion molecule (NCAM) immunoglobulin modules 1 and 2 (Ig1 and Ig2) were used as a negative control protein [9]. The data were analyzed using nonlinear curve-fitting with the manufacturer’s software.

[3] = test system: Cerebellar granule neurons; experiment: Neurite outgrowth from cerebellar granule neurons; assay type: cell-based, rat; conditions: for Neurite outgrowth from CGNs: 7-day-old CGNs grown on fibroblast cells, 24 hours
Description: as §1, §2
Figure 6 Effect of Ilantide on neurite outgrowth from cerebellar granule neurons. Cerebellar granule neuron cultures were treated with interleukin 1 receptor antagonist (IL-1Ra) (A), soluble interleukin 1 receptor type I (sIL-1RI) (B), Ilantide-t (C) or IL-1β (D) for 24 hours. The cultures were fixed and immunostained with rabbit anti-rat growth-associated protein 43 (anti-GAP-43) primary antibodies and then with secondary Alexa Fluor 488 goat anti-rabbit antibodies. (E) Effect of IL-1β on neurite outgrowth induced by IL-1Ra. (F) Effect of IL-1β on neurite outgrowth induced by Ilantide-t. The results from three to four independent experiments are expressed as percentage ± SEM with untreated controls set at 100%, corresponding to an average neurite length of 19.3 ± 4.1 μm. *P < 0.05 and **P < 0.01 compared with untreated controls (A to D) or cultures treated with either IL-1Ra or Ilantide alone (E and F) by one-way analysis of variance followed by the Newman-Keuls post hoc test).

ectodomain of IL-1RI = target: T1, ectodomain of IL-1RI (Homo sapiens, UniProt P14778); experiment: Surface plasmon resonance binding of immobilized ligand to recombinant IL-1RI ectodomain; conditions: SPR, Biacore 2000, ligand immobilized on CM4 chip, IL-1RI ectodomain injected, 25°C
T1 construct: the recombinant ectodomain of IL-1RI (R&D Systems) was injected; purchased R&D Systems
T1 sequence (P14778 18-336 limits assumed): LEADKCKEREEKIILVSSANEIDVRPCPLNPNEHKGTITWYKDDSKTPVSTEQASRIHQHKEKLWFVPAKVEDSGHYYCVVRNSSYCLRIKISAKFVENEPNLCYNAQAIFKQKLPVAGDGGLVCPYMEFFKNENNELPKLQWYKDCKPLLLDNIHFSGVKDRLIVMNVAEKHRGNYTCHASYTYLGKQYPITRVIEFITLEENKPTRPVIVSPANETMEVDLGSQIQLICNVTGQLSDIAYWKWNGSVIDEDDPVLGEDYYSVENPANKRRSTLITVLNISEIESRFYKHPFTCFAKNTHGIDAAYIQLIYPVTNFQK
Description: as §3

AMJ2-C8 macrophages = experiment: TNF-α secretion from IL-1β-activated macrophages (L929 bioassay); assay type: cell-based, mouse; conditions: 1.2 pM IL-1β, 24 hours; TNF-α by L929 survival with actinomycin D; hydrocortisone at 100 μM
Description: A murine alveolar macrophage cell line, AMJ2-C8 (American Type Culture Collection, Borås, Sweden), was routinely grown at 37°C with 5% CO2 in DMEM supplemented with 5% (vol/vol) FCS, 0.5% (v/v) 2-[4-(2-hydroxyethyl)piperazin-1-yl]ethanesulfonic acid (HEPES) (Gibco BRL), 2 mM GlutaMAX, 100 U/ml penicillin and 100 μg/ml streptomycin.
AMJ2-C8 macrophages were seeded into six-well multidishes at a density of 2.5 × 10^5 cells/well, and sIL-1RI, IL-1Ra or various concentrations of Ilantide were added to the cultures. Treatment with 100 μM hydrocortisone (Sigma-Aldrich, Brøndby, Denmark) was used as a positive control. After 10-minute incubation at 37°C, 1.2 pM IL-1β or IFN-γ (R&D Systems) was added to activate the macrophages. L929 cells were seeded onto a 96-well plate (Nunc, Roskilde, Denmark) at a density 0.2 × 10^2 cells/ml. Both cell cultures were incubated for 24 hours at 37°C. Conditioned medium from macrophages was collected and added to the L929 cell cultures together with actinomycin D (0.6 μg/well; Sigma-Aldrich). TNF-α is known to induce classic apoptosis in L929 cells in the presence of actinomycin D [12]. After 24-hour incubation at 37°C, 20 μl of 3-(4,5-dimethylthiazol-2-yl)-5-(3-carboxymethoxyphenyl)-2-(4-sulfophenyl)-2H-tetrazolium (Promega, Madison, WI, USA) were added to each well and incubated at 37°C in the dark for 45 minutes, then measured in an ELISA reader at 490 nm. To calculate the amount of TNF-α in the conditioned medium, fibroblasts were treated with standard concentrations of TNF-α (R&D Systems).

[4] = test system: HEK-Blue IL-1β cells (IL-1RI / NF-κB); experiment: IL-1β-induced NF-κB activation, SEAP reporter; assay type: cell-based; conditions: 1.2 pM IL-1β, 24 hours, SEAP read at 600 nm, four independent experiments
Description: HEK-Blue IL-1β cells that contained an IL-1β-sensitive reporter (InvivoGen, San Diego, CA, USA) and HEK-Blue IL-6 cells that contained an IL-6-sensitive reporter (InvivoGen) were grown at 37°C with 5% CO2 in Dulbecco’s modified Eagle’s medium (DMEM) supplemented with 5% (vol/vol) fetal calf serum (FCS), 4.5 g/L glucose, 2 mM GlutaMAX medium, 100 U/ml penicillin, 100 μg/ml streptomycin (all obtained from Gibco BRL/Life Technologies, Taastrup, Denmark), 100 μg/ml zeocin, 200 μg/ml hygromycin and 100 μg/ml Normocin (all purchased from InvivoGen).
HEK-Blue IL-1β cells allow the monitoring of the activation of the NF-κB pathway specifically in response to IL-1β. They express a NF-κB-inducible secreted embryonic alkaline phosphatase (SEAP) reporter gene. The binding of IL-1β to its receptor IL-1RI on the surface of HEK-Blue IL-1β cells triggers a signaling cascade that leads to the activation NF-κB and the subsequent production of SEAP. HEK-Blue IL-1β cells were grown as described above. The cells were seeded onto a 96-well plate at a density 3.5 × 10^5 cells/ml. For the NF-κB activation assay, the cells were treated with 1.2 pM IL-1β alone or together with sIL-1RI, IL-1Ra or various concentrations of Ilantide. After 24 hours of incubation at 37°C, 150 μl of the cell supernatants were added to each well of a 96-well plate together with 50 μl of QUANTI-Blue (InvivoGen), incubated at 37°C for 40 minutes and measured in an enzyme-linked immunosorbent assay (ELISA) reader at 600 nm to determine the expression levels of reporter genes activated by NF-κB.

[5] = target: T2, recombinant ectodomain of IL-1 receptor type I (IL-1RI) (UniProt P14778 18-336); experiment: SPR; Biacore 2000; about 2,500 to 3,000 RU of Ilantide-t, IL-1β or IL-1Ra immobilised on a CM4 sensor chip; IL-1RI ectodomain (or NCAM Ig1-Ig2 as negative control) injected; 25°C, 10 mM sodium phosphate pH 7.4, 150 mM NaCl; apparent Kd; conditions: both partners purified
T2 construct: interleukin 1 receptor type I, ectodomain; No catalogue number, limits or tag are printed for the bought protein; also called sIL-1RI; soluble IL-1 receptor type I; source: bought: R&D Systems
T2 sequence (looked up): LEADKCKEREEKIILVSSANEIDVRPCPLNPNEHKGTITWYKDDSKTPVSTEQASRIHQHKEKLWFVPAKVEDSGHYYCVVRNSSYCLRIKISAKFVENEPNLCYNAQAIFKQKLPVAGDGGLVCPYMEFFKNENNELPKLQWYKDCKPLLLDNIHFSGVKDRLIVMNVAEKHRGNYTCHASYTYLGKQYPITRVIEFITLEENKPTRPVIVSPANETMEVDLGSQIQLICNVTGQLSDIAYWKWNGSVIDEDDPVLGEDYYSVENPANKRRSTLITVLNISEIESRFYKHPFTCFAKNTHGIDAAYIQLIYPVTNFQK

Molecule: IGF-1: insulin-like growth factor 1, positive control [reference compound]
- CGN survival after potassium withdrawal [1]: inhibited

- Binding to double-Ig module of NCAM (negative control) [2]: no significant binding
- k a (ectodomain of IL-1RI; 10 mM sodium phosphate pH 7.4, 150 mM NaCl): 8.56 ± 2.79 × 10^5 M^-1 s^-1
- k d (ectodomain of IL-1RI; pH 7.4): 7.53 ± 2.03 × 10^-4 s^-1
Molecule: IL-1β: recombinant interleukin 1β
- Neurite outgrowth from CGNs [3]: did not have neuritogenic effects
- Effect on the neuritogenic effect of both IL-1Ra and Ilantide-t ([3]; IL-1β at 1.5 nM and 7.5 nM): significantly inhibited

Molecule: C[C@]12CCC(=O)C=C1CC[C@@H]1[C@@H]2[C@@H](O)C[C@@]2(C)[C@H]1CC[C@]2(O)C(=O)CO [hydrocortisone, reference compound]
- Inhibition of IL-1β-induced TNF-α secretion in macrophages (AMJ2-C8 macrophages): completely inhibited

B1: sIL-1RI: soluble IL-1 receptor type I (recombinant ectodomain of IL-1RI) (protein)
chain: LEADKCKEREEKIILVSSANEIDVRPCPLNPNEHKGTITWYKDDSKTPVSTEQASRIHQHKEKLWFVPAKVEDSGHYYCVVRNSSYCLRIKISAKFVENEPNLCYNAQAIFKQKLPVAGDGGLVCPYMEFFKNENNELPKLQWYKDCKPLLLDNIHFSGVKDRLIVMNVAEKHRGNYTCHASYTYLGKQYPITRVIEFITLEENKPTRPVIVSPANETMEVDLGSQIQLICNVTGQLSDIAYWKWNGSVIDEDDPVLGEDYYSVENPANKRRSTLITVLNISEIESRFYKHPFTCFAKNTHGIDAAYIQLIYPVTNFQK
- Neurite outgrowth from CGNs [3]: significantly induced neurite outgrowth
- Inhibition of IL-1β-induced TNF-α secretion in macrophages (AMJ2-C8 macrophages): significantly inhibited
- Inhibition of NF-κB activation induced by IL-1β [4]: dose-dependently inhibited

- Kd [5]: 27.5 nM
- koff [5]: 0.00269 s⁻¹
- kon [5]: 184000 M⁻¹ s⁻¹
B2: Ilantide-t (peptide)
peptide: SGRKSSKMQA
modifications: also: dendrimer of four monomers coupled to a lysine backbone
notes: ten residues from the N terminus of human IL-1 receptor antagonist (IL-1Ra); Four copies of the peptide on a lysine backbone; also called IL-1 antagonistic peptide (dendrimer form); source: synthetic peptide; bought: Schafer-N; further purified by gel filtration (Sephadex G-10)
